Experimental data reported in US10596234B2, “Compositions and methods to inhibit viral replication” (priority 2016, dated 2020).
Positions count from the first letter of the chain named. Names may count otherwise.

Legend:
RIG-I [1] = test: Two-dimensional gel electrophoresis of RIG-I deamidation in cells; type: cell-based, human; settings: 293T/RIG-I cells transfected with UL37, DON 10 μM
Protocol: Cells (1×10^6) were lysed in 150 μl rehydration buffer (8 M Urea, 2% CHAPS, 0.5% IPG Buffer, 0.002% bromophenol blue) by three pulses of sonication and whole cell lysates were centrifuged at 20,000 g for 15 min. Supernatants were loaded to IEF strips for focusing with a program comprising: 20 V, 10 h (rehydration); 100 V, 1 h; 500 V, 1 h; 1000 V, 1 h; 2000 V, 1 h; 4000 V, 1 h; 8000 V, 4 h. After IEF, strips were incubated with SDS equilibration buffer (50 mM Tris-HCl [pH8.8], 6 M urea, 30% glycerol, 2% SDS, 0.001% Bromophenol Blue) containing 10 mg/ml DTT for 15 min and then SDS equilibration buffer containing 2-iodoacetamide for 15 min. Strips were washed with SDS-PAGE buffer, resolved by SDS-PAGE, and analyzed by immunoblotting.

UL37C (571-1123) = target: T1, UL37C (571-1123) (Human herpesvirus 1, UniProt P10221); test: Cysteine labeling with electrophile and tandem mass spectrometry; type: biochemical, HSV-1; settings: for C819 labeled by CNM: 45 minutes
T1 construct: bacterial purified UL37 (571-1123) was treated with N-methylacetamide; His; made in house; host or cells: E. coli BL21(DE3)
Protocol: […] Samples were then blocked with Iodoacetamide (Sigma) (50 mM) at room temperature for 1 h and subjected to Mass Spectrometry analysis (Poochon Scientific).

HSV-1 = HSV-1 plaque assay in HEK293 cells stably expressing RIG-I wild-type or mutants; type: cell-based; settings: HEK293 stable cells, HSV-1 MOI=0.5
RIG-I [2] = test: In vitro ATPase activity assay; type: biochemical, human; settings: purified RIG-I proteins; for ATPase activity kcat: at physiological ATP concentrations; for ability to hydrolyze ATP: with or without 5′ppp-RNA
Protocol: (§1) Purified RIG-I or RIG-I mutants were incubated with 5′-ppp-dsRNA (Invivogen) at 37° C. for 20 min in ATPase reaction buffer (50 mM Tris-HCl, pH 7.5, 2.5 mM MgCl2, and ATP. Released phosphates were measured using a PiColorLock™ phosphate detection reagent (Innova Biosciences). For reactions with varying concentrations of ATP, the concentrations of RIG-I proteins and RNA were 20 nM and 80 nM, respectively. For reactions with varying concentrations of the RNA, the concentrations of RIG-I proteins and ATP were 20 nM and 500 μM, respectively.
as §1, with “ATP).” for “ATP.”

[3] = system: 5′-triphosphate 19mer dsRNA; test: RNA electrophoresis mobility shift assay (EMSA); type: binding; settings: 32P-labeled 5′-triphosphate 19mer dsRNA
Protocol: RNA EMSA was performed as previously described (Takahasi et al., 2008). 5′-ppp-dsRNA and control dsRNA were purchased from Invivogen and bottom strands were labeled with γ-[P^32]ATP by T4 polynucleotide kinase (NEB). Purified RIG-I and RIG-I mutants were incubated with dsRNA at room temperature for 15 min. Binding buffer contains 20 mM Tris-HCl (pH=8.0), 1.5 mM MgCl2 and 1.5 mM DTT. Unlabeled ppp-dsRNA was used as competitor at 500-fold in excess. The reaction mixtures were run on 5% native polyacrylamide gels at a constant voltage of 200 V. Gels were dried and subjected to phosphorimaging.

PRDIII promoter = test: Dual-luciferase reporter assay (PRDIII, SeV infection); type: cell-based, human; settings: 293T cells, SeV 100 HAU/ml
Protocol: HEK293T cells, seeded in 24-well plates (˜50% cell density), were transfected with IFN-β, PRDIII (ISRE) or NF-κB reporter plasmid cocktail (50 ng of luciferase reporter plasmid and 5 ng of pRL Renilla luciferase control vector) and expression plasmid (empty plasmid, one or multiple plasmids depending on the experiment) by calcium phosphate precipitation. Cells were infected with SeV (100 HA/ml), HSV-1 for 16 h, transfected with Poly [I:C] for 16 h or directly harvested 30-36 h post transfection. Whole cell lysates were used to determine the activity of firefly luciferase and renilla luciferase by a microplate reader (FLUOstar Omega).

[N-]=[N+]=CC(=O)CC[C@H](N)C(=O)O [DON, 6-diazo-5-oxo-L-norleucine, reference compound]
UL37-induced RIG-I deamidation in cells (RIG-I [1]): inhibited RIG-I deamidation

O=C(CCl)NCO [CNM, 2-Chloro-N-(hydroxymethyl) acetamide]
C819 labeled by CNM (UL37C (571-1123); CNM 1 μM): 38.3%
C819 labeled by CNM (UL37C (571-1123); CNM 10 μM): 42.5%
C850 labeled by CNM (UL37C (571-1123); CNM 1 and 10 μM): < 10%

B1: RIG-I-WT: wild-type RIG-I polypeptide, SEQ ID NO. 3 (protein, listed as Homo sapiens)
chain: MTTEQRRSLQAFQDYIRKTLDPTYILSYMAPWFREEEVQYIQAEKNNKGPMEAATLFLKFLLELQEEGWFRGFLDALDHAGYSGLYEAIESWDFKKIEKLEEYRLLLKRLQPEFKTRIIPTDIISDLSECLINQECEEILQICSTKGMMAGAEKLVECLLRSDKENWPKTLKLALEKERNKFSELWIVEKGIKDVETEDLEDKMETSDIQIFYQEDPECQNLSENSCPPSEVSDTNLYSPFKPRNYQLELALPAMKGKNTIICAPTGCGKTFVSLLICEHHLKKFPQGQKGKVVFFANQIPVYEQQKSVFSKYFERHGYRVTGISGATAENVPVEQIVENNDIIILTPQILVNNLKKGTIPSLSIFTLMIFDECHNTSKQHPYNMIMFNYLDQKLGGSSGPLPQVIGLTASVGVGDAKNTDEALDYICKLCASLDASVIATVKHNLEELEQVVYKPQKFFRKVESRISDKFKYIIAQLMRDTESLAKRICKDLENLSQIQNREFGTQKYEQWIVTVQKACMVFQMPDKDEESRICKALFLYTSHLRKYNDALIISEHARMKDALDYLKDFFSNVRAAGFEEIEQDLTQRFEEKLQELESVSRDPSNENPKLEDLCFILQEEYHLNPETITILFVKTRALVDALKNWIEGNPKLSFLKPGILTGRGKTNQNTGMTLPAQKCILDAFKASGDHNILIATSVADEGIDIAQCNLVILYEYVGNVIKMIQTRGRGRARGSKCFLLTSNAGVIEKEQINMYKEKMMNDSILRLQTWDEAVFREKILHIQTHEKFIRDSQEKPKPVPDKENKKLLCRKCKALACYTADVRVIEECHYTVLGDAFKECFVSRPHPKPKQFSSFEKRAKIFCARQNCSHDWGIHVKYKTFEIPVIKIESFVVEDIATGVQTLYSKWKDFHFEKIPFDPAEMSK
reduction of HSV-1 replication / titer (HSV-1): ~50%
ATPase activity kcat (RIG-I [2]): 944 s⁻¹

B2: RIG-I-N495D (protein, UniProt O95786 1-925, looked up, variant N495D)
Antiviral innate immune …: B1 chain with N495D, E580D
ability to hydrolyze ATP (RIG-I [2]): basal or no ATPase activity
RNA-binding (RIG-I:RNA complex formation) [3]: comparable RNA-binding affinity to RIG-I-WT

B3: RIG-I-N549D (protein, UniProt O95786 1-925, looked up, variant N549D)
Antiviral innate immune …: B1 chain with N549D, E580D
ability to hydrolyze ATP (RIG-I [2]): basal or no ATPase activity

B4: RIG-I-DD (protein)
chain: B1 chain with N495D, N549D
modifications: left off: small tags and cut ends
reduction of HSV-1 replication / titer (HSV-1): marginal effect
ATPase activity kcat (RIG-I [2]): 32.6 s⁻¹
ability to hydrolyze ATP (RIG-I [2]): completely lost its ability to hydrolyze ATP
RNA-binding (RIG-I:RNA complex formation) [3]: significantly impaired in forming the fast migrating RIG-I:RNA complex

B5: C850S (protein)
chain: MADRGLPSEAPVVTTSPAGPPSDGPMQRLLASLAGLRQPPTPTAETANGADDPAFLATAKLRAAMAAFLLSGTAIAPADARDCWRPLLEHLCALHRAHGLPETALLAENLPGLLVHRLVVALPEAPDQAFREMEVIKDTILAVTGSDTSHALDSAGLRTAAALGPVRVRQCAVEWIDRWQTVTKSCLAMSPRTSIEALGETSLKMAPVPLGQPSANLTTPAYSLLFPAPFVQEGLRFLALVSNRVTLFSAHLQRIDDATLTPLTRALFTLALVDEYLTTPERGAVVPPPLLAQFQHTVREIDPAIMIPPLEANKMVRSREEVRVSTALSRVSPRSACAPPGTLMARVRTDVAVFDPDVPFLSSSALAVFQPAVSSLLQLGEQPSAGAQQRLLALLQQTWTLIQNTNSPSVVINTLIDAGFTPSHCTHYLSALEGFLAAGVPARTPTGHGLGEVQQLFGCIALAGSNVFGLAREYGYYANYVKTFRRVQGASEHTHGRLCEAVGLSGGVLSQTLARIMGPAVPTEHLASLRRALVGEFETAERRFSSGQPSLLRETALIWIDVYGQTHWDITPTTPATPLSALLPVGQPSHAPSVHLAAATQIRFPALEGIHPNVLADPGFVPYVLALVVGDALRATCSAAYLPRPVEFALRVLAWARDFGLGYLPTVEGHRTKLGALITLLEPAARGGLGPTMQMADNIEQLLRELYVISRGAVEQLRPLVQLQPPPPPEVGTSLLLISMYALAARGVLQDLAERADPLIRQLEDAIVLLRLHMRTLSAFFECRFESDGRRLYAVVGDTPDRLGPWPPEAMGDAVSQYCSMYHDAKRALVASLASLRSVITETTAHLGVSDELAAQVSHEDNVLAVVRREIHGFLSVVSGIHARASKLLSGDQVPGFCFMGQFLARWRRLSACYQAARAAAGPEPVAEFVQELHDTWKGLQTERAVVVAPLVSSADQRAAAIREVMAHAPEDAPPQSPAADRVVLTSRRDLGAWGDYSLGPLGQTTAVPDSVDLSRQGLAVTLSMDWLLMNELLRVTDGVFRASAFRPLAGPESPRDLEVRDAGNSLPAPMPMDAQKPEAYGHGPRQADREGAPHSNTPVEDDEMIPEDTVAPPTDLPLTSYQ
blockade of SeV-induced PRDIII promoter activation (PRDIII promoter): greatly impaired blockade of PRDIII induction by SeV
